The values that follow come from US20220073643A1 (NANJING GENSCRIPT BIOTECH, published 2022).

B1: 182D10F1 (antibody, V domains shown)
VH: QAYLQQSGAELVRSGASVKMSCKASGYTFSSYNMHWVKQTPGQGLEWIGYIYPGNGGTNYNQKFKGKATLTADTSSSTAYMQISSLTSEDSAVYFCLTGRGFTYWGQGTLVTVSA
VL: DIVMTQSPSSLTVTAGEKVTMNCKSSQSLFNSGNQKNYLTWYQQKPGQPPKLLIYRASTRESGVPDRFTGSGSGTDFTLTISSVQAEDLAVYYCQNDYSYPLTFGVGTKLELK
notes: mouse hybridoma mAb
B2: 203A6D5 (antibody, V domains shown)
VH: QVQLKQSGPGLVQPSQSLSITCTVSGFSLTRYGVHWVRQSPGKGLEWLGVIWSGGNTDYNAAFISRLNIRKDNSKSQVFFKMNSLKPNDTAIYYCARAAYFGNSFDYWGQGTTLTVSS
VL: DIVMTQSPSSLPVTAGEKVTMSCKSSQSLLNSGNQKNYLTWYQQKPGQPPKLLIYWASTRDSGVPDRFTGSGSGTDFTLTISSVQAEDLAVYYCQNNYIYPLTFGAGTKLELK
notes: mouse hybridoma mAb
B3: 186G12H3 (antibody, V domains shown)
VH: EVMLVESGGGLVKPGGSLKLSCAASRFTLSSYAMSWVRQTPEKRLEWVATISSGGSYTYYFDSVKGRFTISRDTAKNTLNLQMSSLRSEDTAMYYCARLYYGNALDYWGQGTSVTVSS
VL: DIVMTQSPSSLTVTAGEKVTVSCKSSQSLLNSGNQKNYLTWYQQKPGQPPKLLIYWASTRESGVPDRFTGSGSGTDFTLTISSVQAEDLAVYYCQNNYIYPLTFGAGTTLELK
notes: mouse hybridoma mAb
B4: 203A6C9 (antibody, V domains shown)
VH: QVQLKQSGPGLVQPSQSLSITCTVSGFSLTRYGVHWVRQSPGKGLEWLGVIWSGGNTDYNAAFISRLNIRKDNSKSQVFFKMNSLKPNDTAIYYCARAAYFGNSFDYWGQGTTLTVSS
VL: DIVMTQSPSSLPVTAGEKVTMSCKSSQSLLNSGNQKNYLTWYQQKPGQPPKLLIYWASTRDSGVPDRFTGSGSGTDFTLTISSVQAEDLAVYYCQNNYIYPLTFGAGTKLELK
notes: mouse hybridoma mAb
B5: 232F1E4 (antibody, V domains shown)
VH: QVQLKESGPGLVAPSQSLSITCTVSGFALTTYGVSWVRQPPGKGLEWLGVIWGDGSTHYHSALISRLSIRKDNSKSQVFLKLNSLQTDDTATYYCAKPGRGNAMDYWGQGTSVTVSS
VL: DIVMSQSPSSLTVTAGEKVTMSCKSSQSLLNSGNQKNYLTWYQQKPGQSPKLLIYWASTRESGVPDRFTGSGSGTDFTLTISSMQAEDLAVYYCQNDYIYPLTFGAGTMLELK
notes: mouse hybridoma mAb
B6: 241H10A1 (antibody, V domains shown)
VH: QVQLQQSGAELVKPGASVKLSCKASGYTFTSFGINWLRQRPEQGLEWIGWIFPGDGNSKYNENFKGKATLTTDKSSSTAYMQVTRLTSEDSAVYFCARFYYGNSFANWGQGTLVTVSA
VL: DIVMTQSPSSLTVTAGEKVTMSCKSSQSLLNSGNQKNYLTWYQQKPGQPPKLLIYWAATRESGVPDRFTGSGSGTDFTLTISSVQAEDLAVYYCQNDYFYPFTFGGGTKLELK
notes: mouse hybridoma mAb
B7: 234B9D4 (antibody, V domains shown)
VH: EIQLQQSGPDLMKPGSSVKISCTASGYSFTSYYIHWVKQSHGKTLEWIGYIDPFNGGTRYNQKFEGKAALTVDKSSTTAYMHLTSLTSDDSAVYYCASLRFFTYWGQGTLVTVSA
VL: DIVMTQSPSSLTVTAGEKVTMTCKSSQSLLNSGNQENYLTWYQQKPGQPPKLLISRASTRQSGVPDRFTGSGSGTDFTLTISSVQAEDLAVYYCQNDYSYPLTFGAGTKLELK
notes: mouse hybridoma mAb
B8: 248G8E8 (antibody, V domains shown)
VH: QVQLKESGPGLVAPSQSLSITCTVSGFSLTTYGVSWVRQPPGKGLEWLGVIWGDGSTNYHSTLISRLRISKDKSKSQVFLKLNSLQTDDTATYYCAKAGRGNALDYWGQGTSVTVSS
VL: DIVLTQSPSSLTVTAGEKVTMSCKSSQSLLNSGNQKNYLTWYQQKPGQPPKLLIYWASTRESGVPDRFTGSGSGTDFTLTISSVQAEDLAVYYCQNDYSFPLTFGAGTKLELK
notes: mouse hybridoma mAb
B9: 185F2G12 (antibody, V domains shown)
VH: QAYLQQSGAELVRSGASVKMSCKASGYTFTSYNMHWVRQTPGQGLEWIGYIYPGNGGTNYSQKFKGKASLTADTSSTTAYMQISSLTSEDSAVYFCATGRGFAYWGQGTLVTVSA
VL: DIVMTQSPSSLTVTAGEKVTLSCKSSQSLFNTGNQKNYLTWYQQKPGQPPKLLIFRASTRESGVPDRFTGSGFGTDFTLTISSVQAEDLAVYYCQNDFSYPLTFGAGTKLELK
notes: mouse hybridoma mAb
B10: 231C11E9 (antibody, V domains shown)
VH: EVMLVESGGGLVKPGGSLKLSCAASGFTFNNYVMCWVRQTPEKRLEWVATISSGNFYTYYPDSVKGRFTISRDNAKNTLYLQMSSLRSEDTAIYYCASLGRGNALDNWGQGTSVTVSS
VL: DIVMTQSPASLTVTAKEKVTMSCRSSQSLLNSGNQKNYLTWYQQKPGQPPKLLIYWASTRESGVPDRFTGSGSGTDFTLTISSVQAEDLAVYYCQNDYSYPFTFGSGTKLEIK
notes: mouse hybridoma mAb
B11: 266B11F7 (antibody, V domains shown)
VH: QVQMKESGPGLVAPSQSLSITCTVSGFSLTTYGVTWVRQPPGKGLEWLGVIWGDGSTNYHSALTSRLRISKDKSKSQVFLKLSSLQTDDTATYYCAKPGRGNALDYWGQGTSVTVSS
VL: DIVMTQSPSSLTVTAGEKVTMRCKSSQSLLNSGNQKNYLTWYQQKPGQPPKLLVYWASTRESGVPDRFTGSGSGTDFTLTVSSVQAEDLAVYYCQNDYIFPLTFGAGTKLELK
notes: mouse hybridoma mAb
B12: 213B10A4 (antibody, V domains shown)
VH: QAYVQQSGAELVRSGASVKMSCRASGYTFTSYNMHWVKQTPGQGLEWIGYIYPGNGGTYYNQKFKGKATLTADTSSSTAYMQISSLTSEDSAVYFCATGRGFAYWGQGTLVTVSA
VL: DIVMTQSPSSLTVTAGEKVTMSCKSSQSLLNSGNQKNYLTWYQQKPGQPPKLLIYRASTRESGVPDRFTGSGFGTDFTLTISSVQAEDLAVYYCQNDYSYPLTFGAGTKLELK
notes: mouse hybridoma mAb
B13: 237D2A4 (antibody, V domains shown)
VH: QVQLKESGPGLVAPSQSLSITCTVSGFSLTSYGVSWVRQPPGKGLEWLGVIWGDGSTNYHSTLISRLRISKDKSKSQVFLKLNSLQTDDTATYYCAKAGRGNALDYWGQGTSVTVSS
VL: DIVMTQSPSSLTVTAGEKVTMSCKSSQSLLNSGNQKNYLTWYQQKPGQPPKLLIYWASTRESGVPDRFTGSGSGTDFTLTISSVQAEDLAVYYCQNDYSFPLTFGAGTKLELK
notes: mouse hybridoma mAb
B14: 234A10F7 (antibody, V domains shown)
VH: QVQLQQSGAELVKPGASVKLSCKASGYTFTSFGINWLRQRPEQGLEWIGWIFPGDGNSKYNENFKGKATLTTDKSSSTAYMQLTRLTSEDSAVYFCARFYYGNSFAYWGQGTLVTVSA
VL: DIVMTQSPSSLTVTTGQKVTMSCKSSQSLLNSGNQKNYLTWYQQKPGQPPKLLIYWAATRESGVPDRFTGSGSGTDFTLTISSVQAEDLAVYYCQNDYFYPFTFGAGTKLELK
notes: mouse hybridoma mAb
B15: 273C10E5 (antibody, V domains shown)
VH: QVQLQQSGAELVKPGASVKLSCKASGYTFTSFGINWLRQRPEQGLEWIGWIFPGDGNSKYNENFKGKATLTTDKSSSTAYMQVTRLTSEDSAVYFCARFYYGNSFANWGQGTLVTVSA
VL: DIVMTQSPSSLTVTAGEKVTMSCKSSQSLLNSGNQKNYLTWYQQKPGQPPKLLIYWAATRESGVPDRFAGSGSGTDFTLTISSVQAEDLAVYYCQNDYFYPFTFGAGTKLELK
notes: mouse hybridoma mAb
B16: 267B2C5 (antibody, V domains shown)
VH: QVQLKESGPGLVAPSQSLAITCTVSGFSLTTYGVSWVRQPPGKGLEWLGVIWGDGSTHYHSALISRLSIRKDNSKSQVFLKVNSLQTDDTATYYCGKPGRGNAMDYWGQGTSVTVSS
VL: DIVMTQSPSSLTVTAGEKVTMSCKSSQSLLNSGNQKNYLTWYQQKPGQSPKLLIYWASTRESGVPDRFTGSGSGTDFTLTISSVQAEDLAVYYCQNDYIYPLTFGGGTTLELK
notes: mouse hybridoma mAb
B17: 226A4B5 (antibody, V domains shown)
VH: QAYLQQSGAELVRSGASVRMSCKASGFTFTSYNIHWVKQTPGQGLEWIGYIYPGSGGSNYNQKFMGKATLTADTSSSTVYMQISSLTSEDSAVYFCATGRGFAYWGQGTLVTVSA
VL: DIVMTQSPSSLTVTAGEKVTMSCKSSQSLFNSGNQKNYLTWYQQKPGQPPKLLIYRASTRESGVPDRFTGSGSGTDFTLTISSVQAEDLAVYYCQNDYSYPLTFGTGTKLELK
notes: mouse hybridoma mAb
B18: 198F10B8 (antibody, V domains shown)
VH: QAYLQQSGAELVRSGASVRMSCKASGYTFSSYNMHWVKQTPGQGLEWIGYIYPGNGGTNYNQKFKDKATLTADTSSSTAFIQISSLTSEDSAVYFCLTGRGFAYWGQGTLVTVSA
VL: DIVMTQSPSSLTVTAGERVTMSCKSSQSLFNSGNQKNYLTWYQQKPGQPPKLLIYRASTRESGVPDRFTGSGSGTDFTLTISSVQAEDLAVYYCQNDYSYPLTFGVGTKLELK
notes: mouse hybridoma mAb
B19: 194A2F7 (antibody, V domains shown)
VH: QIQLVQSGPELKKPGETVKISCKASGYTFTDYLIHWVKQAPGKGLKWMGWINTETGEPTYADDFKGRFALSLETSASTACLQINNLKNEDTATYFCARIYYGNSFDYWGQGTTLTVSS
VL: DIVMTQSPSSLPVTAGEKVTMTCKSSQNLLNSGNQKSYLTWYQQKPGQPPKLLIYWASTRETGVPDRFTGSGSGTDFTLTISSVQAEDLAVYYCQNAYRFPFTFGAGTRLELK
notes: mouse hybridoma mAb
B20: 248E6A7 (antibody, V domains shown)
VH: QAYLQQSGAELVRSGASVKMSCRASGYTFTSHNMHWVKQTPGQGLEWIGYIYPGNGNTYYNQKFKVKATLTADTSSNTAYMQINSLTSEDSAVYFCVRDYYGNSFVYWGQGTLVTVSA
VL: DVVMTQSPSSLTEKTGEKVTMTCKSSQSLLNSGNQKNYLAWYQQKPGQPPKLLIYWASTRESGVPDRFIGSGSGTDFTLTISSLQTEDLAVYYCQNNYMYPFTFGAGTKLELK
notes: mouse hybridoma mAb
B21: 196A12B10 (antibody, V domains shown)
VH: QIQWVQSGPELKKPRETVKISCKASGYTFTDYSMHWVKQAPGKGLKWMGWINSETGEATYADDFRGRFALSLETSATTAFLQINSLKNEDTGTYFCARFYYGNSFASWGQGTTLTVSS
VL: DIVMTQFPSSLTVTAGEKVTMTCKSSQSLLNGGNQKNYLTWYQQKPGLPPKLLIYWASTRESGVPDRFTGSGSGTEFTLTISSVQAEDLAVYYCQNNYYFPLTFGAGTKLELK
notes: mouse hybridoma mAb; also called 196Al2B10

Broadly, the EC50 is the midpoint of the concentration-response curve. A low value points to a more potent agent.

In this assay the target is T1, human Claudin18.2 (human).
T1 construct: also called CLDN18.2
Briefly: cell ELISA, Claudin18.2-expressing HEK293T cells. The protocol:
To determine protein binding EC₅₀ by Cell ELISA, 96-well U-bottom microplates were pre-blocked with blocking buffer (5% MPBS, 1×PBS with 5% skim milk) overnight at 4° C. On the next day, the Claudin18.2-expressing HEK293T stable cell line was suspended at 1.5×10⁶ cells/ml in blocking buffer, added to the plate in 100 μl/well and incubated at room temperature for 1 hour.
Raw data were plotted with GraphPad Prism v6.02 software with four parameters, best-fit value program to analyze the EC₅₀.
Background: An ELISA detects its analyte on a solid surface through an enzyme-linked reagent.
In turn, B1 came in with an EC50 of 1.65 nM.

In turn, B2 yielded an EC50 of 1.16 nM.

On to B3, for which a half-maximal response (EC50) required 2.21 nM.

For the molecule B4, the EC50 turned out to be 0.916 nM. Compared with the last molecule, the EC50 is about 2.4-fold lower.

B5 displayed an EC50 of 0.966 nM.

On to B6, for which a half-maximal effect (EC50) was put at 1.66 nM.

B7 registered an EC50 of 4.78 nM.

Take B8: the EC50 is 0.56 nM.

Turning to B9, the EC50 worked out at 1.73 nM.

Molecule B10 gave an EC50 of 1.91 nM.

For B11, the EC50 is around 0.397 nM.

Turning to B12, the EC50 is 2.33 nM.

For the molecule B13, the EC50 was found to be 1.9 nM.

B14: the EC50 was 0.857 nM.

Take B15: the EC50 is 0.181 nM.

For the molecule B16, the midpoint of the response, the EC50, lay at 0.895 nM.

Molecule B17 registered an EC50 of 1.59 nM. This EC50 lies about 1.8-fold higher than the previous one.

As for B18, a half-maximal effect (EC50) was put at 1.82 nM.

B19 registered an EC50 of 2.57 nM.

With B20, it took 0.396 nM to reach a half-maximal effect (EC50).

With B21, the EC50 amounted to 1.78 nM.
